How the values were obtained:
[1] = biological target: the molecule itself; test: SDS-PAGE
[2] = biological target: the molecule itself; test: SEC
[3] = biological target: T1, YdaTmut (H56A R57A) (Escherichia coli K-12 MG1655 (Rac …, UniProt P76064 1-140, H56A;R57A)); test: DNase I footprinting
T1 sequence: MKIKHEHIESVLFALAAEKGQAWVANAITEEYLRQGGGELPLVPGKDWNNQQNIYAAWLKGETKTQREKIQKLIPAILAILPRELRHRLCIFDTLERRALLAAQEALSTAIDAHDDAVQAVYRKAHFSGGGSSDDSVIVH

[4] = biological target: T2, YdaT (Rac prophage) (Escherichia coli K-12 MG1655 (Rac …, UniProt P76064 1-140)); test: DNase I footprinting
T2 sequence: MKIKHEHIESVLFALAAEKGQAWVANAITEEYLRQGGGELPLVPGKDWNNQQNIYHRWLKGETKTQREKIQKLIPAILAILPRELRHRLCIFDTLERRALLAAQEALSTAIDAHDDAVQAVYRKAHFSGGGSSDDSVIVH

B1: N-terminally 6x His-tagged YdaT, wild type (Rac prophage transcription factor) (natural protein, E. coli K-12 (Rac prophage), UniProt P76064 1-140, looked up)
chain: MKIKHEHIESVLFALAAEKGQAWVANAITEEYLRQGGGELPLVPGKDWNNQQNIYHRWLKGETKTQREKIQKLIPAILAILPRELRHRLCIFDTLERRALLAAQEALSTAIDAHDDAVQAVYRKAHFSGGGSSDDSVIVH
- stoichiometry N [1]: 2
- stoichiometry N [2]: 4

B2: IGR footprint substrate (165 bp) (dsDNA)
DNA 1: GCGCATTACATTAGGCAATCCCTACCCTTACTGCATTAGGCACAGCCTATTGACAATTGCGTTAGGCGTCGCCTAATATTTCTGTGTGTTTTTGGAGTTCATTCGATGAAAAAAGAGAACTATTCATTCAAGCAAGCTTGTGCTGTTGTCGGTGGGCAATCAGCA
DNA 2: TGCTGATTGCCCACCGACAACAGCACAAGCTTGCTTGAATGAATAGTTCTCTTTTTTCATCGAATGAACTCCAAAAACACACAGAAATATTAGGCGACGCCTAACGCAATTGTCAATAGGCTGTGCCTAATGCAGTAAGGGTAGGGATTGCCTAATGTAATGCGC
- binding result [3]: no binding
- binding result [4]: binds

— publication PMC11879457 (Nucleic Acids Research, 2025)
